# In publication doi:10.1101/2021.11.29.470334 (bioRxiv, 2021):
# B1: Kir6.2 from Mus musculus (mmKir6.2) H175K mutant, as the Kir6.2 subunit of H175K_(cryoEM) (natural protein)
# chain: LSRKGIIPEEYVLTRLAEDPAEPRYRTRERRARFVSKKGNCNVAHKNIREQGRFLQDVFTTLVDLKWPHTLLIFTMSFLCSWLLFAMVWWLIAFAHGDLAPGEGTNVPCVTSIHSFSSAFLFSIEVQVTIGFGGRMVTEECPLAILILIVQNIVGLMINAIMLGCIFMKTAQAKRRAETLIFSKHAVITLRHGRLCFMLRVGDLRKSMIISATIHMQVVRKTTSPEGEVVPLHQVDIPMENGVGGNGIFLVAPLIIYHVIDSNSPLYDLAPSDLHHHQDLEIIVILEGVVETTGITTQARTSYLADEILWGQRFVPIVAEEDGRYSVDYSKFGNTIKVPTPLCTARQLDEDRSLLDALTLASSRGPLRKRSVAVAKAKPKFSISPDSLS
# Target: the molecule itself
# Experiment: cryo-EM structure
protein,measurement,value
B1,binding result,binds
